Data on two substances can be found in US6528630.

Like-named read-outs stand apart in the source and are kept apart here.

For assay [1], the target named is α1B-1α2bβ1-3 human neuronal calcium channel (human) (UniProt Q02641). Description: Bmax of 125I-ω-CgTx GVIA binding, against α1B-1β1-3.
The target is the same in assay [2]. Description: Bmax of 125I-ω-CgTx GVIA binding, against α1B-2α2bβ1-3.
Assay [3] addresses α1B-2α2bβ1-3 human neuronal calcium channel (human) (UniProt Q02641). Description: Bmax of 125I-ω-CgTx GVIA binding, against α1B-2β1-3.
The target in assay [4] is α1B-1β1-2 human neuronal calcium channel subunit combination (human) (UniProt Q02641). Description: Bmax of 125I-ω-CgTx GVIA binding, against α1B-1 alone.
For assay [5], the target named is α1B-1β1-3 human neuronal calcium channel subunit combination (human) (UniProt Q02641). The description is as above.
For assay [6], the target named is α1B-1α2bβ1-3 human neuronal calcium channel (human) (UniProt Q02641). Briefly: Bmax of 125I-ω-CgTx GVIA binding, against α1B-1α2bβ1-2.
Assay [7] concerns the target α1B-2α2bβ1-3 human neuronal calcium channel (human) (UniProt Q02641). Briefly: Bmax of 125I-ω-CgTx GVIA binding, against α1B-2α2bβ1-2.
The target of assay [8] is α1B-1α2bβ1-2 human neuronal calcium channel (human) (UniProt Q02641). The assay is described as above.
For assay [9] the target is unchanged. Description: Bmax of 125I-ω-CgTx GVIA binding, against α1B-1β1-2.
The target in assay [10] is α1B-2α2bβ1-2 human neuronal calcium channel (human) (UniProt Q02641). Briefly: saturation binding of 125I-ω-CgTx GVIA to transfected HEK293 cells.
The target in assay [11] is α1B-2β1-3 human neuronal calcium channel subunit combination (human) (UniProt Q02641). The description is as above.
The target of assay [12] is α1B-1β1-2 human neuronal calcium channel subunit combination (human) (UniProt Q02641). Described as above.
The target of assay [13] is α1B-2α2bβ1-3 human neuronal calcium channel (human) (UniProt Q02641). Described as above.
Assay [14] addresses α1B-1β1-3 human neuronal calcium channel subunit combination (human) (UniProt Q02641). Described as above.
The target of assay [15] is α1B-2β1-2 human neuronal calcium channel subunit combination (human) (UniProt Q02641). Described as above.
Assay [16] concerns the target α1B-1α2bβ1-2 human neuronal calcium channel (human) (UniProt Q02641). Described as above.
The target in assay [17] is α1B-1α2bβ1-3 human neuronal calcium channel (human) (UniProt Q02641). Described as above.
For assay [18], the target named is α1B-2α2bβ1-2 human neuronal calcium channel (human) (UniProt Q02641). Description: Bmax of 125I-ω-CgTx GVIA binding, against α1B-2β1-2.
The target of assay [19] is α1B-1α2bβ1-2 human neuronal calcium channel (human) (UniProt Q02641).

α1B-2α2bβ1-3 human neuronal calcium channel (human), sequence (Q02641 whole entry): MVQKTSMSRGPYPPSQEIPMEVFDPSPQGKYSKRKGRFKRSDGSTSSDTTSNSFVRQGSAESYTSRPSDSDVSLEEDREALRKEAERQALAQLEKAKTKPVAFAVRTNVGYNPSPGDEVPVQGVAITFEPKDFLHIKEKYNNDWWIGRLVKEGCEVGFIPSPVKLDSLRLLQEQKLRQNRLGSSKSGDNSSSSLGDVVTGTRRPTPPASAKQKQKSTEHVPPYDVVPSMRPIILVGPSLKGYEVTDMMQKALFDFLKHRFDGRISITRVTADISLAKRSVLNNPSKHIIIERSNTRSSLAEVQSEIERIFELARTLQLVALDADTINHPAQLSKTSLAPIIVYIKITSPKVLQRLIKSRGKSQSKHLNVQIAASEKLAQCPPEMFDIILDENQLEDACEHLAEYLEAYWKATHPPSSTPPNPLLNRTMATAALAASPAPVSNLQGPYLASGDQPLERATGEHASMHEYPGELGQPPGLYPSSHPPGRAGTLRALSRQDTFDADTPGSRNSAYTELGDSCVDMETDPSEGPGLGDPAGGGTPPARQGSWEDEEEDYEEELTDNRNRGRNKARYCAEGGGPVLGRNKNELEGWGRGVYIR
α1B-1β1-2 human neuronal calcium channel subunit combination (human), sequence (Q02641 whole entry): as above
α1B-2α2bβ1-2 human neuronal calcium channel (human), sequence (Q02641 whole entry): as above
α1B-1α2bβ1-2 human neuronal calcium channel (human), sequence (Q02641 whole entry): as above
α1B-1α2bβ1-3 human neuronal calcium channel (human), sequence (Q02641 whole entry): as above
α1B-1β1-3 human neuronal calcium channel subunit combination (human), sequence (Q02641 whole entry): as above
125I-ω-CgTx GVIA, sequence (P01522 46-72 limits assumed): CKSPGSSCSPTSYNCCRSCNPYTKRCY
α1B-2β1-2 human neuronal calcium channel subunit combination (human), sequence (Q02641 whole entry): as the sequence (Q02641 whole entry) above
α1B-2β1-3 human neuronal calcium channel subunit combination (human), sequence (Q02641 whole entry): as above

Broadly, the Kd is the free concentration of one partner at which half of the binding sites on the other are occupied at equilibrium, for simple one-to-one binding. For “125I-ω-CgTx GVIA (from UniProt P01522 46-72) (peptide)”, the fold change of surface receptor density was found to be 10 fold in [1], 13 fold in assay [3], 8 fold in assay [9] and 9 fold in assay [18]. Besides, the fold change of binding sites per cell in assay [2] and in [8] was 2.5 fold throughout. Moreover, the fold change of surface binding in assay [4] came to 8 fold; in assay [5], 10 fold. Further, the fold change of binding capacity in assay [6] and in assay [7] was 2 fold throughout. In addition, the Bmax was 19400 sites/cell in assay [10]; 2940 sites/cell in assay [11]; 5760 sites/cell in [12]; 37700 sites/cell in [13]; 8730 sites/cell in assay [14]; 2130 sites/cell in [15]. Moreover, the Bmax in [16] amounted to 45300 sites/cell; in assay [17] it was 91000 sites/cell. Further, the Kd came out at 0.053 nM in assay [10]; 0.0222 nM in assay [11]; 0.0179 nM in assay [12]; 0.0443 nM in assay [13]; 0.0179 nM in assay [14]; 0.0164 nM in assay [15]. In addition, the Kd came to 0.0549 nM in assay [16] and 0.0532 nM in assay [17].
For “ω-CgTx GVIA (from UniProt P01522 46-72) (peptide)”, in assay [19], the Kd was 0.0546 nM and the binding capacity (Bmax) (sites per cell) was determined as 28700.
